Results reported in patent US20260242478A1 (published 2026).
Where no end group is shown, it is not given here.

B1: Phage-1300 (peptide, not shown: large carriers)
peptide: YCSGHLPMYMAKCL
modifications: cysteine pairing not given here; also: fused to phage pIII protein, pIII and linker sequence not given here
notes: Tested as clonal phage supernatant
B2: Phage-1301 (peptide, not shown: large carriers)
peptide: YCEGHLAVHMSKCL
modifications: cysteine pairing not given here; also: fused to phage pIII protein, pIII and linker sequence not given here
notes: as for B1
B3: Phage-1302 (peptide, not shown: large carriers)
peptide: YCDGHIEMYMSKCM
modifications: cysteine pairing not given here; also: fused to phage pIII protein, pIII and linker sequence not given here
notes: as for B1
B4: Phage-1303 (peptide, not shown: large carriers)
peptide: YCAGHALEYMQKCM
modifications: cysteine pairing not given here; also: fused to phage pIII protein, pIII and linker sequence not given here
notes: as for B1
B5: Phage-1304 (peptide, not shown: large carriers)
peptide: YCEGHIGDYIAKCL
modifications: cysteine pairing not given here; also: fused to phage pIII protein, pIII and linker sequence not given here
notes: as for B1
B6: Phage-1305 (peptide, not shown: large carriers)
peptide: YCQGHSELYMSKCL
modifications: cysteine pairing not given here; also: fused to phage pIII protein, pIII and linker sequence not given here
notes: as for B1
B7: Phage-1306 (peptide, not shown: large carriers)
peptide: YCDGHTPQFRAKCL
modifications: cysteine pairing not given here; also: fused to phage pIII protein, pIII and linker sequence not given here
notes: as for B1
B8: Phage-1307 (peptide, not shown: large carriers)
peptide: YCEGHLQEYMGKCL
modifications: cysteine pairing not given here; also: fused to phage pIII protein, pIII and linker sequence not given here
notes: as for B1
B9: Phage-1308 (peptide, not shown: large carriers)
peptide: YCDGHVTEYMAKCL
modifications: cysteine pairing not given here; also: fused to phage pIII protein, pIII and linker sequence not given here
notes: as for B1
B10: Phage-1309 (peptide, not shown: large carriers)
peptide: YCDGHIMPYLDKCL
modifications: cysteine pairing not given here; also: fused to phage pIII protein, pIII and linker sequence not given here
notes: as for B1
B11: Phage-1310 (peptide, not shown: large carriers)
peptide: YCEGHKKEYMLKCL
modifications: cysteine pairing not given here; also: fused to phage pIII protein, pIII and linker sequence not given here
notes: as for B1
B12: Phage-1311 (peptide, not shown: large carriers)
peptide: YCEGHVELYRQKCL
modifications: cysteine pairing not given here; also: fused to phage pIII protein, pIII and linker sequence not given here
notes: as for B1
B13: Phage-1312 (peptide, not shown: large carriers)
peptide: YCDGHLETYMQKCL
modifications: cysteine pairing not given here; also: fused to phage pIII protein, pIII and linker sequence not given here
notes: as for B1
B14: Phage-1314 (peptide)
peptide: YCEGHLDEYLQKCM
notes: Peptide-87 library clone, tested as clonal phage (peptide fused to pIII of the bacteriophage)
B15: Phage-1315 (peptide)
peptide: YCAGHTTEYIVKCL
notes: as for B14
B16: Phage-1316 (peptide)
peptide: YCEGHVPQYMGKCL
notes: as for B14
B17: Phage-1317 (peptide)
peptide: YCDGHAAMYMSKCL
notes: as for B14
B18: Phage-1318 (peptide)
peptide: YCEGHLGLYMKKCL
notes: as for B14
B19: Phage-1319 (peptide)
peptide: YCAGHAQEYMRKCL
notes: as for B14
B20: Phage-1320 (peptide)
peptide: YCAGHIPQYLNKCL
notes: as for B14
B21: Phage-1321 (peptide)
peptide: YCDGHSTEYMWKCL
notes: as for B14
B22: Phage-1322 (peptide)
peptide: YCEGHIKDYMTKCL
notes: as for B14
B23: Phage-1323 (peptide)
peptide: YCAGHDAEYMQKCL
notes: as for B14
B24: Phage-1324 (peptide)
peptide: YCEGHMQWYMAKCL
notes: as for B14
B25: Phage-1325 (peptide)
peptide: YCEGHAPVYMQKCL
notes: as for B14

The binders below were run against T1, Anti-CD28 Fab (SEQ ID NOs: 696, 697) (assay: phage ELISA; Fab-coated wells pre-incubated with CD28 antigen as competitor, clonal phage supernatant, anti-M13 HRP detection).
T1 construct: In the phage ELISA the Fab was biotinylated and captured on neutravidin coated plates
T1 sequence (VH, as listed by the source, chain 1 of 2): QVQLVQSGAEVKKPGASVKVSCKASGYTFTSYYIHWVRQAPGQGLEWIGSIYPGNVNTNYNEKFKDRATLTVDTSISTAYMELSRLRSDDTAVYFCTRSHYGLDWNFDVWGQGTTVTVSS
T1 sequence (VL, as listed by the source, chain 2 of 2): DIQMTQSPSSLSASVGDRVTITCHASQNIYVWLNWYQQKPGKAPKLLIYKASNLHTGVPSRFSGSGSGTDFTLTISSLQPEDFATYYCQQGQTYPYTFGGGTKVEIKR
Method: (§1) After panning, phage infected bacteria were plated out and colonies picked into 96 well blocks. Clonal phage was then amplified and separated from bacterial cells via centrifugation.
(§2) Clonal phage were harvested as crude supematants and screened via standard ELISAs. […] Prior to the addition of clonal phage, wells were incubated with blocking buffer and CD28 antigen or blocking buffer alone. Without washing or aspirating, clonal phage supematants were then added to the wells and incubated for a short time. Wells were then washed followed by detection of bound phage using a horse radish conjugated anti-M13 antibody. Clonal phage of interest were then sent for sequence analysis.

Binder | Phage binding ELISA, Anti-CD28 Fab signal in the presence of CD28
YCEGHSRQYMEKCM [Phage-1299] | 0.33

The binders below were run against Anti-CD28 Fab (SEQ ID NOs: 696, 697) (assay: phage ELISA as above; wells pre-incubated with CD28 antigen as competitor).
Target sequence in this assay (VH, as listed by the source, chain 1 of 2): as the sequence (VH, as listed by the source, chain 1 of 2) above
Target sequence in this assay (VL, as listed by the source, chain 2 of 2): as the sequence (VL, as listed by the source, chain 2 of 2) above
Method: as §1, §2

Binder | Anti-CD28 Fab signal in the presence of CD28 (phage binding ELISA)
B1 | 0.13
B2 | 0.06
B3 | 0.06
B4 | 0.08
B5 | 0.36
B6 | 0.08
B7 | 0.07
B8 | 0.25
B9 | 0.07
B10 | 0.05
B11 | 0.08
B12 | 0.06
B13 | 0.08

The binders below were run against Anti-CD28 Fab (SEQ ID NOs: 696, 697) (assay: phage binding ELISA on captured anti-CD28 Fab, wells pre-incubated with CD28 antigen as competitor;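 further: crude clonal phage supernatants added to wells preloaded with CD28 antigen, bound phage read by HRP-conjugated anti-M13 antibody, control wells got blocking buffer alone without CD28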).
Target sequence in this assay (VH, as listed by the source, chain 1 of 2): as the sequence (VH, as listed by the source, chain 1 of 2) above
Target sequence in this assay (VL, as listed by the source, chain 2 of 2): as the sequence (VL, as listed by the source, chain 2 of 2) above

Binder | Anti-CD28 Fab signal in the presence of CD28 (phage binding ELISA)
B14 | 0.08
B15 | 0.05
B16 | 0.08
B17 | 0.07
B18 | 0.06
B19 | 0.07
B20 | 0.07
B21 | 0.06
B22 | 0.08
B23 | 0.06
B24 | 0.09
B25 | 0.08

Each binder was assayed against T1, Anti-CD28 Fab (SEQ ID NOs: 696, 697) (assay: phage ELISA; biotinylated anti-CD28 Fab on neutravidin plate, clonal phage supernatant, anti-M13 HRP detection;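 further: crude supernatants of single phage clones picked after panning were screened for binding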).

Binder | Phage binding ELISA, Anti-CD28 Fab signal
YCEGHSRQYMEKCM [Phage-1299] | 0.63

Each binder was assayed against Anti-CD28 Fab (SEQ ID NOs: 696, 697) in the same assay as above.
Target sequence in this assay (VH, as listed by the source, chain 1 of 2): as the sequence (VH, as listed by the source, chain 1 of 2) above
Target sequence in this assay (VL, as listed by the source, chain 2 of 2): as the sequence (VL, as listed by the source, chain 2 of 2) above

Binder | Anti-CD28 Fab signal (phage binding ELISA)
B1 | 0.62
B2 | 0.62
B3 | 0.61
B4 | 0.61
B5 | 0.61
B6 | 0.6
B7 | 0.59
B8 | 0.58
B9 | 0.58
B10 | 0.57
B11 | 0.56
B12 | 0.56
B13 | 0.53

What follows are binders tested against Anti-CD28 Fab (SEQ ID NOs: 696, 697) (assay: phage binding ELISA, clonal phage on biotinylated anti-CD28 Fab captured on neutravidin plates;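 further: crude clonal phage supernatants added to wells pretreated with CD28 antigen or blocking buffer only, bound phage detected by HRP-linked anti-M13 antibody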).
Target sequence in this assay (VH, as listed by the source, chain 1 of 2): as the sequence (VH, as listed by the source, chain 1 of 2) above
Target sequence in this assay (VL, as listed by the source, chain 2 of 2): as the sequence (VL, as listed by the source, chain 2 of 2) above

Binder | Anti-CD28 Fab signal (phage binding ELISA)
B14 | 0.51
B15 | 0.5
B16 | 0.5
B17 | 0.5
B18 | 0.49
B19 | 0.49
B20 | 0.49
B21 | 0.49
B22 | 0.47
B23 | 0.46
B24 | 0.45
B25 | 0.44
